Assay [1] deals with immunocomplex of CCPH variant and biotinylated anti-Adda mAb. The experiment in a line: Single-step non-competitive TR-IFMA with SA51D1 scFv-AP, toxin standards. The class given is binding.
In assay [2] the test system is anti-Adda mAb-MC-LR immunocomplex. The format is binding.
Assay [3] concerns immunocomplex of CCPH variant and biotinylated anti-Adda mAb. The experiment in a line: Quantitative lateral flow test with streptavidin up-converting nanoparticles. The settings on record: each CCPH at 1 μg/l. The class given is binding.
The subject of assay [4] is anti-Adda mAb without MC-LR. The assay is described as follows: BioLayer Interferometry (Octet), binding to naked primary antibody. To be noted: SA51D1 1 μg/ml; no MC-LR. Here is the method:
(§1) Binding of SA51D1 was explored using Octet RED384 instrument (Pall ForteBio). Three measurements (A, B and C) were performed in duplicates using tilted-bottom 384-well microplates (ForteBio) with 1000 rpm agitation at 30° C. Colorless Assay Buffer (Kaivogen) [0.05 M Tris-HCl, pH 7.75, 0.9% (w/v) NaCl, 0.05% (w/v) NaN3, 0.01% (v/v) Tween 40, 0.05% (w/v) bovine-γ-globulin, 20 μM diethylenetriaminepentaacetate (DTPA), and 0.5% (w/v) bovine serum albumin (BSA)] was used.
(§2) Biotinylated ADDA Mab AD4G2 (1 μg/ml) was immobilized on Streptavidin biosensor (Dip and Read SA Biosensors, ForteBio) for 200 sec. In order to form IC, another loading was performed with MC-LR (1 μg/ml) for 200 sec. In blank measurement (C) only buffer was used instead of MC-LR. All sensors were incubated in buffer for 60 sec.

Assay [5] relates to immunocomplex formed by anti-Adda Mab and MC-LR. The experiment in a line: BioLayer Interferometry (Octet), binding to immunocomplex. To be noted: SA51D1 1 μg/ml. Here is the method:
as §1, §2
On the technique in general: Biolayer interferometry detects binding as a change in optical thickness at a sensor tip.

The nature of assay [6]: BioLayer Interferometry (Octet), pre-incubation with free toxin. The class given is binding. The settings on record: pre-incubated with 500 μg/L MC-LR. The protocol:
as §1, §2

The subject of assay [7] is immunocomplexes of CCPH variants and anti-Adda mAb. The assay is described as follows: Screening and cross-reactivity studies of anti-IC scFv-AP binders, specificity class. The format is binding.
For assay [8], the system named is complex of biotinylated anti-Adda Mab and MC-LR. The experiment in a line: TR-IFMA signal with MC-LR. The format is binding. To be noted: 10 μg/l MC-LR. The protocol: (§3) By way of example, the specificity of SA51D1 to the immune complex was also seen in our immunoassay, where streptavidin-coated 96-well microtiter wells were used to capture a complex formed by biotinylated anti-Adda Mab, CCPH, SA51D1 antibody fused to alkaline phosphatase and this complex was detected with europium-labelled anti-alkaline phosphatase Pab. […] With 10 μg/l level of MC-LR the fluorescence signal was 789966 counts.

Assay [9] deals with biotinylated anti-Adda Mab, no CCPH. The assay is described as follows: TR-IFMA background signal without CCPH. The class given is binding. Here is the method:
as §3

For assay [10], the system named is CCPH in unknown water samples, immunocomplex with anti-Adda mAb. The experiment in a line: Anti-IC immunoassay profiling of blinded water samples (Abraxis proficiency testing). The class given is binding. To be noted: sample MC-TK8, MC-LR + MC-RR + MC-YR, 4 + 1 + 1 μg/l; listed as Nod5.
Assay [11] relates to immunocomplexes of MC-XZ and Nod-R with anti-Adda mAb. The assay is described as follows: Cross-reactivity profile of anti-IC binders by single-step non-competitive assay (FIG. 5). The format is binding. To be noted: toxin 0.1 to 60 μg/L.

The source of these data is patent US10808024B2, “Antibodies against immunocomplexes comprising cyanobacterial cyclic peptide hepatotoxins” (priority 2015, dated 2020).

Entries after “also recorded” stand apart in the source; their conditions may differ.

MC-LA had a Sensitivity in assay [1] of 0.05 µg/L.

Consider MC-LR, for which the “Sensitivity (blank+3SD)” value in assay [2] is listed as “below 0.3 μg/L”.

B1: SA51D1: group-specific (generic) anti-immunocomplex scFv from synthetic phage display library (antibody, V domains shown)
VH: EVQLLESGGGLVQPGGSLRLSCAASGFTFSNYSMHWVRQAPGKGLEWVSEITPYDGNTDYADSVKGRFTISRDNSKNTLYLQMNSLRAEDTAVYYCAREWWSSNWIYLDYWGQGTLVTVSS
VL: EIVLTQSPGTLSLSPGERATLSCRASQSVSSSNLAWYQQKPGQAPRLLIYGASSRATGVPDRFSGSGSGTDFTLTISRLEPEDFAVYYCQQMHSTPWTFGQGTKVEIKRT
modifications: Clone SA51D1; DOMAIN (31)..(35) CDR1; DOMAIN (50)..(66) CDR2; DOMAIN (99)..(110) CDR3; DOMAIN (24)..(35) CDR1; DOMAIN (51)..(57) CDR2; DOMAIN (90)..(98) CDR3
In the case of B1, the “Recognition of nine CCPH variants in lateral flow test” value in assay [3] was “recognizes all CCPH variants tested”. Moreover, the “Binding to anti-Adda mAb alone” value in [4] is “no interaction; also recorded: neglegtable binding”. The Binding to immunocomplex entry in assay [5] is “binds specifically”. Further, the “Affinity towards free MC-LR” value in assay [6] is given as “does not have affinity; also recorded: no affinity”. The “Specificity of anti-IC antibody (CCPH immunocomplexes recognized)” value in assay [7] is “group-specific; also recorded: broad-specific”. For the same molecule, the Fluorescence signal in [8] is listed as 789966 counts. Further, the “Background fluorescence signal level” value in assay [9] is 404 counts.

B2: SA32C11: variant-specific anti-IC antibody, Nod-R (antibody, V domains shown)
VH: EVQLLESGGGLVQPGGSLRLSCAASGFTFSDYWMHWVRQAPGKGLEWVSEINTSNGNTYYADSVKGRFTISRDNSKNTLYLQMNSLRAEDTAVYYCARESWWPYSFDYWGQGTLVTVSS
VL: EIVLTQSPGTLSLSPGERATLSCRASQSVSSSNLAWYQQKPGQAPRLLIYGASSRATGVPDRFSGSGSGTDFTLTISRLEPEDFAVYYCQQSSSLPWTFGQGTKVEIKRT
modifications: Clone SA32C11; DOMAIN (31)..(35) CDR1; DOMAIN (50)..(66) CDR2; DOMAIN (99)..(108) CDR3; DOMAIN (24)..(35) CDR1; DOMAIN (51)..(57) CDR2; DOMAIN (90)..(98) CDR3
For B2, the “Recognition of nine CCPH variants in lateral flow test” value in assay [3] is recorded as “Only Nodularin was recognized”. Moreover, the “Specificity of anti-IC antibody (CCPH immunocomplexes recognized)” value in assay [7] is on record as “recognize immunocomplexes comprising Nod-R; also recorded: nodularin-R specific”. Besides, in assay [10], the “Specific anti-IC assay result” value was “not”. In [11], the “Specificity (cross-reactive pattern)” value was “specificity only towards Nod-R”.
